Earlier results as cited in publication PMC4434180.

Biological target: PriL (p58) NTD (Homo sapiens) (UniProt P49643)
UniProt P49643, sequence (P49643 1-253): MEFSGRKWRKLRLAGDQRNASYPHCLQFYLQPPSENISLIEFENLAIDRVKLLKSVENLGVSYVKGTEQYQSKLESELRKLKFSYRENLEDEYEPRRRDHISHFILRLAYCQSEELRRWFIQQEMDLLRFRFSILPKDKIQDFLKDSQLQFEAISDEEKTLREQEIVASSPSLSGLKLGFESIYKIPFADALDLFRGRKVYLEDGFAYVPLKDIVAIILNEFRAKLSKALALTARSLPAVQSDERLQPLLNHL

Kd: 0.46 nM
Substance: PriS (p49) (from UniProt P49642)
